# Source: US20230141962A1
# B1: scFv clone #26 (scFv)
# scFv: QAVLTQAPSASGTLGQQVTISCSGTTSNIGRNTVNWYQHLPGTAPKLLIFVSNQRPSGVPDRFSGSKSGTSASLVISGLQSEDEADYYCGAWDDSLDGMLFGGGTKLTVLGSRGGGGSGGGGSGGGGSLEMAQVQLVQSGAEVKKPGASVKVSCKASGYTFTSYGISWVRQAPGQGLEWMGWISAYNGNTNYAQKLQGRVTMTTDTSTSTAYMELRSLRSDDTAVYYCARGYYGDLDPWGQGTLVTVSSTSGQAGQ
# Assays:
# [1] = molecular target: SARS-CoV-2 S1 (D614G) (SARS-CoV-2), P0DTC2; details: remark: other sources report otherwise
# [2] = molecular target: SARS-CoV-2 S1 Beta Variant (K417N, E484K, N501Y, D614G) (SARS-CoV-2), P0DTC2; details: remark: other sources report otherwise
binder,measurement,setting,value
B1,IC50,[1],1.4 nM
same,IC50,[2],2.27 nM
